Assay results published in a protein production outcome set (Wang et al. 2014).

test: label from the status in PepcDB records

Sequence	protein production
MILLEGSYREMGRQYGGLMKTELLSEYAMLTKTLEDRGYSLDYLRWYASAGTQFQPERMKEITRGMAETTGLSEADLSILYYGPALYISMPAGCSYLAVWDTYTTDGSVVLSRNWDLPDLLDPFNPYYVLAVCRPTDGSNGVATFGPAGSRPETLMNSAGLFIADDNSGLAPVGQDDRPDLISEFFRLMLDYSDLDGLKTGVLTTRPDVAWIVDVGGPDGAYVFEVGLNETKVRIGDGVVAAANHFVDPSWDLTTPPGEHSLTRYANLLSQAEAAKGSIDAEEMMQIRDVLMTDDGATFRHSELFGYPYSSNHQVVFVPATRTLWMKVIDLDWQKVELAPLFAM	failed
MILLTYLIGILIGLSLTAPPGPVNSVISTESMKSKAHGVSVGAGAMTADLVFFVIVFRFGAFIPVLALHALYLAGAVLLLYISYSVLKSKISRRTRKGNYLVGLTMGITNPFQILWWMTVGLFFIRYFHIASIAGLFTGIIIWILSFPFVMNKYARRFERYVKIFSFAVLFSFAIYLLYSGVVYFLR	failed
MILLVPILIITLMYFMFENVPHRPGTPSGFNTACLVLLGLFPLFVMFVITAITMQRERASGTLERILTTPLRRLDLLAGYGTAFSIAAAAQATLACIVAFWFLGFDTAGSPVWVFAIAIVNAVLGVGLGLLCSAFARTEFQAVQFIPLVMVPQLLLAGIIVPRALMPTWLEWISNVMPASYALEALQQVGAHPELTGIAVRDVVVVLSFAVASLCLAAVTLRRRTS	failed
MILLYLHIYEQKGSGTLNPVAFTLFGLEIRWYGILIATGVILGLFMAYSNSKLREIEYDSVLDIILISLPIGIIGARLYYVIFQFKSYNGNIIDMINIRNGGLAIHGGLIFGCLAAYIYSRYKKLSFLKLMDIAAPSIILAQALGRWGNFFNGEAHGGPVTYSFIEKFPKFIQKGMTIDGMYYNPTFLYESTWDFVTFIILMLLIRKCKNKGVVFFGYVGLYSLGRFFIEGMRTDSLMLGPIRVAQLVSILGMLISLGFITFSYVKTKRISK	failed
MILPWLILIPFIGGLLCWLGERFGSTLPRWIALLTMTLELALGLWLWATGNFGYAPVPGADPTWALEFHHPWITRFGIDVHLALDGLSLLMILLTGLLGVLSVLCSWKEIQRKVGFFHLNLMWILGGVVGVFLAIDLFMFFFFWEMMLVPMYFLIALWGHSSSDGKKTRIYAATKFFIFTQASGLIMLVAILGLVLVHFNQTGVITFAYADLLKTKLAPGTEYILMLGFFIAFAVKLPVVPLHSWLPDAHAQAPTAGSVDLAGILLKTAAYGLLRFALPLFPNASAEFAPIAMALGLVGIFYGAFLAFAQTDIKRLIAFSSVSHMGFVLIGIYSGSQQALQGVLIQMIAHGLSAAALFILSGQLYERLHTRDMREMGGLWSRIAYIPAISLFFAAASLGLPGTGNFVGEFLILLGSFASAPWITAIATSGLVFGSVYSLIMIHRAYFGPAKSDEVLKGMDGREMIMVLGLAVLLVVLGVFPQPFLDTSAATMHGVQQWLGTAFTQLASAR	not failed
MILRSWARGVTLATICMFSLSSGVILAKNNRPTPLPTYQYPDVYNNYLQPVATAIDYHSGMVYLFNYENDKLIIVDPTSLSGWPGNVPLQHTLVFPEGDKIFITSDNTEEHAAYIIILKVNDINWDAGTVSLAVETVVAADNPGTPTEFPFVEPVNNVQAIPNWLVGRGTTQIHGPTILPYSDFVYLTELTSDRIRVINRKTNEFVSGVDPIAIPGYTEQTHGINFNRSGTIGLGTGYFFDNSVIDVYKPNRETGELQTIGQIRLGDEKRHAAFTHFVYWLDERYAVTASMQFDKTSLTPTTTKKIIPPSVWLLDTLEGTATKILDHTNHANGKGIFRSPSDIAVVNGKLYIAEEDSLDYTFANDGYISVFDLTDRYKPRFLKRLKPGRELPTGYAVAHTISPTPDNRYLIVASWVSGYVLKIDTETDTVVKIWGPNDGLIKPHGIYTAGGLR	failed
MILSIDSNDANTAPLHKKTISSLSGAVESMMKKLEDVGVLVARILMPILFITAGWGKITGYAGTQQYMEAMGVPGFMLPLVILLEFGGGLAILFGFLTRTTALFTAGFTLLTAFLFHSNFAEGVNSLMFMKNLTISGGFLLLAITGPGAYSIDRLLNKKW	failed
MILSNYPLRDRKDSTMGSKTKIVVIRCKELIAGIILSVIALAILALIVISLMNRNTHDTTPPSGRYTAGVYSSSVILNGNPVDIRVTVDEDNINNIEMVNISDSVTTMYPLIQNSFEEIKSSVIANGGVEGVTYSSENKYTSVMILKAIENALDKCRTY	failed
MILTLLQNGDYETARTQALTELKNNSDNAELHYYAAWAHDALGKEDAAIPFYEKALQLGLPADSRKEAYIGLGSTYRITGQPEKSIRLFETALQEFPDNNALRTFSVMAKYNQGLEKEALEEALMLLTQTTSDEDILSYKKAIQFYAQDLDATFHLEHHHHHH	not failed
MILVATKPKDSRGSSSDEMMMNDLDEIIFGENSLGHSSSASGNDQKKQKSSKNNELIHL	failed
MIMKKYWKLMLMAVGMSAAFTLASCNDDKDVVIDQIYYISTDPSATTYPTTFSVSLVDNSVAGRPFFYVVGKSTMRVDRNTTLRVEEDSKLVEKYNETYGKKYLPFPEGTYSFSTNEVTINQGDNFSSDTIFISFSNWDKLSKIDKYLLPVSLKAVDDKGAVSMDRNLIYFIADFSTTNTGYNKPAAWKPLDRTDWDVSFSYAYGYDEAQFGGRLAVDGDVSTTWFTWGVVSAGECWWATTLPAPTHLTGFSLTRQTTFGSSYNVREAKVKVKKEGDTEWTEAGLFRFGSFKGNDPQYAVFIPAVENVKEFRIDIVSPADFTGFAELDLYQ	failed
MIMLNKQGITISLCMIVRDEEETIARCLETVEKIVDEIIVVDTGSVDRTKEIVEKYTSNIYDFQWIDDFAAARNFSFSKATQEYILWLDADDVLLEDAQEALKLLKRELDPKIDAVSMPYHLAMDSNGKPLYCTKRNRLVKREKQFQWFGKVHEYLAISGEVFSSNVAITHKKEKKVTNRNLKIFQNTVAAGEELSPRDLFYYANESTDNQKYDDAVLLYETFLNQDEGWYEEKIYACGKLGDCYAKLGMWEKAIESCVKSFRYDVPRGENCTRIGYIYMEQEKYNEAIFWFKLATEVPMATESPFHSPASYTWLPYLQMCICYSRLGEQDKAYYYNELAASYVPNNAAIEYNRKYFRGVFDKPYKV	failed
MIMNTKERSLLGSWIIWSVAYYMYYPFISIYLSRFVEESKLSLFFVVFQAVSLPLPLIGARLSKRNRILPIIIGMLVGGIGMIMLPFSRNILEATIFMSLNYFISLSLPSYYSLMSEVGEGTITRIWSLSILPSIIMPSLGGLLAQYFGLRLLFMIGGIVLATSFLPMVNSSYNSSSQSLLNFNITIRSFLPAILILPIAMEFPYIYLVVYNYFHLTKEYVGIIATSAEILGMLLTYLASKLIFRKKYLLSLSLFLFSLTSLYFLSPTIAIFFGCWEVIVPLTLEYFSSRKTVYDFALITTMQGLGWVLGYLIDYFIPNISLLLLSSSLIAFLLALMIVFTKD	failed
MIMVSGCQQQKEETPFYYGTWDEGRAPGPTDGVKSATVTFTEDEVVETEVMEGRGEVQLPFMAYKVISQSTDGSIEIQYLGPYYPLKSTLKRGENGTLIWEQNGQRKTMTRIESKTGREEKDEKSKSLEHHHHHH	not failed
MINAISPFQVQNTQNTQNATNQVNNSQKTDSSNQTSFSELLKNSISSLNESQVASDNMTNALAAGKDVNLDEVMIAAQKASISLTAATEFRNKAVEAYQEIMRMQM	not failed
MINEIGHYVLVLALGVGLIVSTLPVIGARRNDRALMDVASLGSVLMFLLVGFSFAALTHAYAVSDFSVRNVWENSHSLMPMLYKLTGVWGNHEGSMLLWLLILVFFSALVAAFGGNLPETLKANVLAVQAWISVAFLLFILLTSNPFLRLERVPAEGQDLNPILQDFGLAIHPPLLYLGYVGFSVCFSFAVAALLEGRIDAAWARWVRPWTLAAWTFLTAGISMGSYWAYYELGWGGWWFWDPVENASFMPWLAGTALLHSALVMEKREALKIWTVLLAIMTFSLSLLGTFLVRSGVLTSVHAFATDPSRGIFILGILTIFIGGAFALFAWRAPSLKAGGLFAPISREGALVLNNLILTVSTATVLIGTLYPLILETLTGEKISVGAPFFNLTFGLLMIPVLIVTPFGPMLAWKRGDLLGAFQRLYVAAAIAALAGLTLWYIENGGPVLAALGIAAGFWLIFGALTDLWYRANFGKLAFGIAFRRLKGLPRSAFGTALAHMGLGITVLGIVIVTTYETETVLEMKQGTVAEAGGYSLTFDGIRHAVGPNFTEDRGHFTVRKAGVEVADVWSSKRLYTARRMPTTEAGILTFGLSQLYVSLGDPMADGGMVVRIWWKPFILCIWGGTLFMMAGGFISLSDRRLRVGAPTRKAKPVRAAMPEAAE	failed
MINIVIPMAGAGSRFAQAGYKKPKPFIDVLGRPMICHVLDNLNMPDARFILLTRKEHFENEQETVNWIKSKYNVEFVLIDNLTEGAACTVLHAHKLIDNNTPLLIANSDQIVDMNIAEFINDSENRNLDGSVLCFKDHDTKWSYAKIDGEGLITEIREKVVISEFATVGIYYFAKGGFFVKNAIDMIIRNERVKNEFYVAPVYNFGIQEGLKFGIFNININQMHGIGTPTDLNVYIDLVQRNKLEHHHHHH	not failed
MINLAVLGLYLLIGFILKRTGKCPENSAQVLNLYVIYAALPGVIFSKVPALEFSTDLLIPVVIPWVLLAFSAVFIWLLGRAFKWPREVVGALLICVPLGNTSFFGFPMIEAFYGSDAIVYGLLYDQFGSFFGLAIYSTIVIALYREQDNKPTVASVTRQIVTFPPFIALIIALLTKSLVYPEVFQRLIDSLAVTLVPVIMIAVGFQLKFRLPKGSKTPLTIGLLTKLVLMPLITVGLLYGFGFDSTLVQVTIFESAMPPMITAGAVAIMAGLAPRLSAAMVGYGILFAFVSLPIVYQLLQLLSAH	failed
MINQRMIHMKNTKLLLAIATSAALLTGCQNTHGIDTNMAISSGLNAYKAATLSDADAKAIANQGCAEMDSGNQVASKSSKYGKRLAKIAKALGNNINGTPVNYKVYMTSDVNAWAMANGCVRVYSGLMDMMNDNEIEGVLGHELGHVALGHSLAEMKASYAIVAARDAISATSGVASQLSRSQLGDIAEGAINAKYSRDKESEADDFSFDLLKKRGISTQGLVGSFETLASLDGGRTQSMFDSHPPSTERAQHIRDRIASGKLEHHHHHH	failed
MINRDFIISFIVVTCIIYLIYVCYGKYLEKKQIYLKTLTIFLIIEVLRRIFIYGKVNNRLISGLSFIQLIFLGISVAMYGLMYFKNNLS	failed
MINRVPTNIITGFLGVGKTTAILHLLATKPAHEKWAVLVNEFGEIGIDGAIMSEQGAMIKEVPGGCLCCTAGVPMSVGINALLRQKPDRLIIEPTGLGHPKQVVATLISEQYQPYVDLKATIALMDPRHLSMDKYRSNQNFNDQLASADIVLGNKVDQCSSSDIDAFNDWVTDQTPAKTFSQLIKQGQFPIELLDMPRLVGHASTHIDSHHHHHAADEPQFQLAPQQPFLRKENRGQGYFSCGWLFGAEYQFNFDLLFQLLNDLTAERVKGVLNTDRGCYAFNVANGVVSVTEMSLDGFESRLEVIDSQLMPWSELESILLKIAGIPQALEHHHHHH	failed
MINSGTLITKIEELQSTLAKMDIALGTVDEAIVWTDGTGQIQWCNTAFDHLMGKLHILILGKNLVELLPLHRNSQPLEVSHHPFTIIVATQQKFTDHYEFNQNGKWLHLEIMTSPLMNAQGAVLVIRDISDRHLQEQTLQQLNENLEKRVLERTQAVSLIN	failed
MIPDELKHYLTDDWYAVVREHKLLELPAKVTVQQISEQYLAHKKSVKSTSASKEVAINDVLDGIVEYFNVMLGSQLLYKFERTQYADVMQKHPDTPLSELYGSFHLLRLFVRLGSMLSYSALDQQSMQNLLTHVQDFLKFLVKNSSIFFSMSNFINVDPEYVRNAQ	failed
MIPEIAGLPALEWTSSAGHASYDEAEATLTLAAASGVDWTNDSLGGEPQHGATALGFRAPAAFSLSARVLVASPRTTFDAGVLTLWADSDHWAKLCFEYSPQGEAMVVSVVTNGYSDDSNGPVVTAPWVYLRVSRVGPAWAFHSSTDGRDWSLVRLFRLDTEKPVHVGFMSQAPMGDGCEARFDAIELKEEPPAELRDGS	failed
